Measured values from PMC10397247.

Key:
Test in all cases: two-hybrid library CCmax;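 also: natural log of median RNA to DNA barcode read ratio; higher means stronger binding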
[1] = biological target: T1, 4H2617-AA; conditions: mean of both orientations
T1 chain: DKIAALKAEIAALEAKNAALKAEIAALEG

[2] = biological target: T2, 4H1324-AA; conditions: mean of both orientations
T2 chain: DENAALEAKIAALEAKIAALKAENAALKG

[3] = biological target: T3, 4H234-AA; conditions: mean of both orientations
T3 chain: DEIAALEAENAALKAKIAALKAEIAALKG

[4] = biological target: T4, 4H3844-AA; conditions: mean of both orientations
T4 chain: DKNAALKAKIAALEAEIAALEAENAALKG

[5] = biological target: T5, 4H678-AA; conditions: mean of both orientations
T5 chain: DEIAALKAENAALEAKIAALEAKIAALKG

[6] = biological target: T6, 4H454-AA; conditions: mean of both orientations
T6 chain: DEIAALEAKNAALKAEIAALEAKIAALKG

[7] = biological target: T7, 4H566-AA; conditions: mean of both orientations
T7 chain: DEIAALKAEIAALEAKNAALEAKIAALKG

[8] = biological target: T8, 4H1135-AA
T8 chain: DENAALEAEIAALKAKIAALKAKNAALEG

[9] = biological target: T9, 4H3921-AA; conditions: mean of both orientations
T9 chain: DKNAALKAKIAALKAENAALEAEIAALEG

[10] = biological target: T10, 4H717-AA; conditions: mean of both orientations
T10 chain: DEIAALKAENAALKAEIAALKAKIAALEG

[11] = biological target: T11, 4H429-AA; conditions: mean of both orientations
T11 chain: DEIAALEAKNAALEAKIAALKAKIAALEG

[12] = biological target: T12, 4H2944-AA; conditions: mean of both orientations
T12 chain: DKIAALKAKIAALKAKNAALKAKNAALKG

[13] = biological target: T13, 4H881-AA; conditions: mean of both orientations
T13 chain: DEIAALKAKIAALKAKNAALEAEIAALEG

[14] = biological target: T14, 4H122-AA; conditions: mean of both orientations
T14 chain: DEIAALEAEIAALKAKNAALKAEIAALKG

[15] = biological target: T15, 4H780-AA; conditions: mean of both orientations
T15 chain: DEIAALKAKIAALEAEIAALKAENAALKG

[16] = biological target: T16, 4H3427-AA; conditions: mean of both orientations
T16 chain: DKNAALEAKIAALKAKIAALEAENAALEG

[17] = biological target: T17, 4H48-AA; conditions: mean of both orientations
T17 chain: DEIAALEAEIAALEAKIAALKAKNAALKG

[18] = biological target: T18, 4H3606-AA; conditions: mean of both orientations
T18 chain: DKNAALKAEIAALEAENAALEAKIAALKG

[19] = biological target: T19, 4H1867-AA; conditions: mean of both orientations
T19 chain: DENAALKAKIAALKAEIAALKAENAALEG

[20] = biological target: T20, 4H317-AA; conditions: mean of both orientations
T20 chain: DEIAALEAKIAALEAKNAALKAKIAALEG

[21] = biological target: T21, 4H2883-AA; conditions: mean of both orientations
T21 chain: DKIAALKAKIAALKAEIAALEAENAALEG

[22] = biological target: T22, 4H993-AA; conditions: mean of both orientations
T22 chain: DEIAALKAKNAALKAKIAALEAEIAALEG

[23] = biological target: T23, 4H2277-AA; conditions: mean of both orientations
T23 chain: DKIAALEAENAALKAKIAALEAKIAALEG

[24] = biological target: T24, 4H2354-AA; conditions: mean of both orientations
T24 chain: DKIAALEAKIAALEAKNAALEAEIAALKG

[25] = biological target: T25, 4H2466-AA; conditions: mean of both orientations
T25 chain: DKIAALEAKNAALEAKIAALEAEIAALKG

[26] = biological target: T26, 4H2949-AA; conditions: mean of both orientations
T26 chain: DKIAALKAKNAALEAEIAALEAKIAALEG

[27] = biological target: T27, 4H1636-AA; conditions: mean of both orientations
T27 chain: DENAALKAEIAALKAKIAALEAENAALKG

[28] = biological target: T28, 4H1552-AA; conditions: mean of both orientations
T28 chain: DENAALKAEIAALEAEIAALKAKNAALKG

[29] = biological target: T29, 4H335-AA; conditions: mean of both orientations
T29 chain: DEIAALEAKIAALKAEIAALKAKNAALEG

[30] = biological target: T30, 4H3655-AA; conditions: mean of both orientations
T30 chain: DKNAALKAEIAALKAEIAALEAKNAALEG

[31] = biological target: T31, 4H1153-AA; conditions: mean of both orientations
T31 chain: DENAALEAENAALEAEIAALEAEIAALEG

[32] = biological target: T32, 4H3343-AA; conditions: mean of both orientations
T32 chain: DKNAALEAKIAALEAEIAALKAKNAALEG

[33] = biological target: T33, 4H2078-AA; conditions: mean of both orientations
T33 chain: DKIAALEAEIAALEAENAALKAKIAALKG

[34] = biological target: T34, 4H2754-AA; conditions: mean of both orientations
T34 chain: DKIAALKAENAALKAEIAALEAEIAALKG

[35] = biological target: T35, 4H1352-AA; conditions: mean of both orientations
T35 chain: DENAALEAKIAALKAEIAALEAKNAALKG

[36] = biological target: T36, 4H1401-AA; conditions: mean of both orientations
T36 chain: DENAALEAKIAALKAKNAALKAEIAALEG

[37] = biological target: T37, 4H2505-AA; conditions: mean of both orientations
T37 chain: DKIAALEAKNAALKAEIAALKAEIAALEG

[38] = biological target: T38, 4H3112-AA; conditions: mean of both orientations
T38 chain: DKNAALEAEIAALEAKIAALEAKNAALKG

[39] = biological target: T39, 4H2190-AA; conditions: mean of both orientations
T39 chain: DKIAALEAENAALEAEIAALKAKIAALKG

[40] = biological target: T40, 4H2165-AA; conditions: mean of both orientations
T40 chain: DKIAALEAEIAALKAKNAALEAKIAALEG

[41] = biological target: T41, 4H342-AA; conditions: mean of both orientations
T41 chain: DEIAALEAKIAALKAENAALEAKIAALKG

[42] = biological target: T42, 4H605-AA; conditions: mean of both orientations
T42 chain: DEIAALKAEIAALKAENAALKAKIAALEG

[43] = biological target: T43, 4H2393-AA; conditions: mean of both orientations
T43 chain: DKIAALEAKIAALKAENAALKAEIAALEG

[44] = biological target: T44, 4H906-AA; conditions: mean of both orientations
T44 chain: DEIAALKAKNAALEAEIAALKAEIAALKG

[45] = biological target: T45, 4H2642-AA; conditions: mean of both orientations
T45 chain: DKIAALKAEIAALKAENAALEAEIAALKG

[46] = biological target: T46, 4H2151-AA; conditions: mean of both orientations
T46 chain: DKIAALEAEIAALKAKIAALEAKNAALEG

[47] = biological target: T47, 4H2729-AA; conditions: mean of both orientations
T47 chain: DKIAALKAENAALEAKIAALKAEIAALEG

[48] = biological target: T48, 4H2575-AA; conditions: mean of both orientations
T48 chain: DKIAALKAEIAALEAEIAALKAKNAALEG

[49] = biological target: T49, 4H3627-AA; conditions: mean of both orientations
T49 chain: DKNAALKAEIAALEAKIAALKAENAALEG

[50] = biological target: T50, 4H794-AA; conditions: mean of both orientations
T50 chain: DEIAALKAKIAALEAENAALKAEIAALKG

[51] = biological target: T51, 4H2837-AA; conditions: mean of both orientations
T51 chain: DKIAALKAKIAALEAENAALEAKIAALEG

- interaction score [1]: -0.407
- interaction score [2]: -1.33
- interaction score [3]: -1.27
- interaction score [4]: 0.92
- interaction score [5]: -0.965
- interaction score [6]: -0.222
- interaction score [7]: -0.252
- interaction score [8]: -0.919
- interaction score [9]: -0.897
- interaction score [10]: -1.4
- interaction score [11]: -1.27
- interaction score [12]: -1.57
- interaction score [13]: -1.61
- interaction score [14]: -1.24
- interaction score [15]: -1.44
- interaction score [16]: -1.05
- interaction score [17]: 0.894
- interaction score [18]: 0.227
- interaction score [19]: 0.0539
- interaction score [20]: -0.38
- interaction score [21]: 1.22
- interaction score [22]: 0.00688
- interaction score [23]: -1.81
- interaction score [24]: -1.64
- interaction score [25]: -1.49
- interaction score [26]: -1.21
- interaction score [27]: -0.92
- interaction score [28]: 0.834
- interaction score [29]: -0.173
- interaction score [30]: 1.88
- interaction score [31]: -0.461
- interaction score [32]: -0.943
- interaction score [33]: -1.19
- interaction score [34]: -0.686
- interaction score [35]: 0.703
- interaction score [36]: -1.46
- interaction score [37]: 1.53
- interaction score [38]: 1.57
- interaction score [39]: -1.27
- interaction score [40]: -1.42
- interaction score [41]: -1.17
- interaction score [42]: -1.37
- interaction score [43]: -1.45
- interaction score [44]: -1.37
- interaction score [45]: -1.3
- interaction score [46]: -0.817
- interaction score [47]: -0.655
- interaction score [48]: 0.484
- interaction score [49]: 0.0922
- interaction score [50]: -1.61
- interaction score [51]: -0.865
B1: 4H1135-AA (peptide)
chain: DENAALEAEIAALKAKIAALKAKNAALEG
